Source: patent US20230382992A1
pEC50: −log10 of the molar value.

How the values were obtained:
[1] = biological target: mouse TIM3 on cells (mouse) (UniProt Q8VIM0); assay: binding to activated mouse T cells, compared with TIM3.18 on human TIM-3
[2] = biological target: mouse TIM3 on cells (mouse) (UniProt Q8VIM0); assay: binding to activated mouse T cells (method not described)

Sequence of mouse TIM3 on cells (mouse) (Q8VIM0 20-281): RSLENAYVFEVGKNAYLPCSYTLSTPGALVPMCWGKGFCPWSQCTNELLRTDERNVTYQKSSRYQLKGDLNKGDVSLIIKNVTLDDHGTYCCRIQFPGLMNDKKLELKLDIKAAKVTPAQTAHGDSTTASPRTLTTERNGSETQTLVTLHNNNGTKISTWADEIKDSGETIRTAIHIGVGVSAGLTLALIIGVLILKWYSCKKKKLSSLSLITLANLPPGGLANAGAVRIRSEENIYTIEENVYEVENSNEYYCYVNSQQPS

fold weaker EC50 than TIM3.18 on human TIM-3 [1]: 17 fold
pEC50 [2]: 8.77
Substance: RMT3-23 rat anti-mouse TIM-3 antibody (Bio-X-Cell)
